Reference: publication PMC3439906

Target: M.EcoKI MTase (M2S1 methyltransferase core of the EcoKI Type I RM system) (E. coli K12) (UniProt P08957)
Assay: ITC

Chain of UniProt P08957 (P08957 whole entry, chain 1 of 2): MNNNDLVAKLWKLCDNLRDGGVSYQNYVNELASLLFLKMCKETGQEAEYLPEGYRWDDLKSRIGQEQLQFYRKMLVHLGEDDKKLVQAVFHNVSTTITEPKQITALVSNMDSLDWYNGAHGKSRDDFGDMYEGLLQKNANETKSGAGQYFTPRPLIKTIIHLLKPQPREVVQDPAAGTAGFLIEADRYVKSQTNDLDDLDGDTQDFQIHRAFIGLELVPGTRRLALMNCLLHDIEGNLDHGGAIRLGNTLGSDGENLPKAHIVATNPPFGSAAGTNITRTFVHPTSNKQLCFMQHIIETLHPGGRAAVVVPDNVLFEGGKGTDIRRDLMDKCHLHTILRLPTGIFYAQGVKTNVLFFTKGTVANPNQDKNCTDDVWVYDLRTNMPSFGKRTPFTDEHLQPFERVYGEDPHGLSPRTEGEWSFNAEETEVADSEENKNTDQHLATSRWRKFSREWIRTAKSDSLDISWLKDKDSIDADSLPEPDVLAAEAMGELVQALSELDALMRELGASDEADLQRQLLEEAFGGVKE
Chain of UniProt P08957 (P05719 whole entry, chain 2 of 2, further chain): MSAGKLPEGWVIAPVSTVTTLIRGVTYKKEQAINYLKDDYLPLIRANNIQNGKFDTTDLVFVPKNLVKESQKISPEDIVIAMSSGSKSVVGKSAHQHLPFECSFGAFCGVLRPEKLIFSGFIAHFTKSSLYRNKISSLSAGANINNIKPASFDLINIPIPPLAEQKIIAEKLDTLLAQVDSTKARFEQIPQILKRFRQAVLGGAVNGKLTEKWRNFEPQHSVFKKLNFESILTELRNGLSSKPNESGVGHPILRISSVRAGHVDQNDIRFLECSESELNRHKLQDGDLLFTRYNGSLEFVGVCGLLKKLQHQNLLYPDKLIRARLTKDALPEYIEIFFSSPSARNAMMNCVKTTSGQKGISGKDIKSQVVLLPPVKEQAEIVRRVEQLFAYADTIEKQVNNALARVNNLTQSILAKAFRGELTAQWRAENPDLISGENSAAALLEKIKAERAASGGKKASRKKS

Ocr/POcr (natural protein)
dH: -15.3 kcal/mol
stoichiometry N (Ocr dimers per M.EcoKI): 0.89
